Test [1] addresses T1, TREM-1 (Mus musculus, UniProt Q9JKE2).
T1 construct: endogenous in cells; host or cells: living mice (C57BL, Balb/c, ApoE-/-), in vivo
T1 sequence (Q9JKE2 21-230): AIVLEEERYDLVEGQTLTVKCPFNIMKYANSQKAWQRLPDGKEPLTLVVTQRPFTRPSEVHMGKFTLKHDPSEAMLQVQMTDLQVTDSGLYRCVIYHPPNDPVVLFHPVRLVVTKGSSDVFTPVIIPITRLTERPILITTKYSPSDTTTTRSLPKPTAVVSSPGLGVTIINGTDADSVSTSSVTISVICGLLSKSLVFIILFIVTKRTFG
Description: Mouse myocardial infarction, leukocyte recruitment and mobilization (flow cytometry), plasma chemokines. In kind it is in vivo. As to the method: All procedures were performed on mice male C57BL/C ranging in age from 6-8 weeks. Mice were anesthetized by an intraperitoneal injection of xylazine (60 mg/kg) and fixed in supine position. The trachea was intubated and ventilated (the tidal volume was 200 μl/25 g and the respiratory rate was 120 breaths/min). After a left thoracotomy, the left coronary artery was identified and ligated with an 8-0 prolene surgical suture at 1.0 mm distal from tip of the left auricle. LAD occlusion was confirmed by a change in myocardial color from red to white in the ischemia area (Left ventricle). The chest was closed and the skin was sutured with 6-0 silk. The animals returned to their cage where they are supervised until their complete recovery.
Mice were monitored after surgery for mortality. Mice were randomized to receive or not peptides (daily ip injection for 5 days, 5 mg/kg) and monitored for survival. […] A median sternotomy was performed followed by excision of the heart and dissection of ischemic and non-ischemic areas. ARN extraction and protein extraction were then performed for RT-PCR, WB, immunohistology, and ELISA analysis.
To prepare single-cell suspensions from infarct tissue, hearts were harvested; minced with fine scissors; placed into a cocktail of collagenase I, collagenase XI, DNase I, and hyaluronidase (Sigma-Aldrich); and shaken at 37° C. for 1 h. Cells were then triturated through and centrifuged (15 min, 500 g, 4° C.).
Spleens were removed, triturated in HBSS at 4° C. with the end of a 3-ml syringe, and filtered through 70-μm nylon filters (BD). The cell suspension was centrifuged at 300 g for 10 min at 4° C. Red blood cells were lysed (Red Blood Cells Lysis solution, Miltenyi), and the splenocytes were washed with HBSS and resuspended in HBSS supplemented with 0.2% (wt/vol) BSA. Peripheral blood was drawn via cardiac puncture with citrate solution as anticoagulant, and red blood cells were lysed. Finally, bone-marrow single-cell suspensions were obtained from femurs after flushing them with 1 mL HBSS, filtering through 70-μm nylon filters and centrifugation at 300 g for 10 min at 4° C. Total viable cell numbers were determined from aliquots using a hemacytometer with Trypan blue (BioRad).
Cell suspensions were incubated in a cocktail of mAbs against CD4^+ or CD8^+ T cells (CD4- or CD8-APC, CD3ε-PE, CD45-FITC), B cells (CD19-PE, CD45-FITC), granulocytes (CD45-FITC, Ly-6G-APC), monocytes subsets (CD115-PE, Ly-6C-APC, CD45-FITC), all antibodies from Miltenyi Biotech. Reported cell numbers were calculated as the product of total living cells (total viable leukocytes per ml) and percentage of cells within selected gate, and reported per mg of tissue (heart), per organ (femur and spleen), or per mL (blood). Data were acquired on a FC500 cytometer (Beckman Coulter).
(In general: In flow cytometry, cells or beads pass a laser one at a time.)

Test [2] deals with TREM-1. Put plainly: Rat model of sepsis-induced cardiac dysfunction, intrinsic cardiac function by Millar catheter. Set-up: dpdtmax/Ved / PRSW: unit not given beside the values; FEVG / ESPVR: unit not given here. The format is in vivo. The source says: TREM-1- and TLT-1-derived peptides administration during rat model of sepsis-induced cardiac dysfunction is associated with an increase of intrinsic cardiac function measured by Millar catheter (FEVG, ESPVR, dpdtmax/Ved, PRSW).
Rats were anaesthetized with isoflurane and a 2 F high-fidelity micro-manometer catheter (SPR-407, Millar Institute, Houston, Tex., USA) was inserted into the LV via the right carotid artery. The Millar catheter was connected to a Harvard Data Acquisition System interfaced with a PC with the AcqKnowledge III software (ACQ 3.2).

Take “LQEEDAGEYGCM (listed as Homo sapiens) [TLT1-LR12]”: the peripheral blood neutrophilia entry in test [1] (72 hours after MI) is “not observed”. Besides, in test [1] (mouse MI), the “B- and CD8+-lymphocyte infiltration of infarcted myocardium” value is listed as “reduced”; the “CD4+-cells recruitment to infarcted myocardium” value was “increased”; the “PMN infiltration of infarcted myocardium” value is recorded as “blocked”. In test [2], this sequence yielded an ESPVR of 2.7 ± 0.1, an FEVG of 77.2 ± 9.2, a PRSW of 143 ± 7 and a dpdtmax/Ved of 158 ± 18.

The record behind these values is patent publication US9657081B2, “Inhibiting peptides derived from triggering receptor expressed on myeloid cells-1 (TREM-1) TREM-like transcript 1 (TLT-1) for treatment of cardiovascular diseases” (INSERM (Institut National de la Sante et de la Recherche …, priority 2013, dated 2017).
